Experimental data from patent US10065989B2, “Molecular sleds and uses thereof” (The Broad Institute, Inc., priority 2012, dated 2018).
Where “and” joins values, the source holds several entries; their conditions need not be identical. Equal values may be shown once. Entries after “also recorded” stand apart in the source; their conditions may differ. Read-outs that look alike come from different tables or passages of the source.

Legend:
dsDNA [1] = format: binding
lambda DNA = assay: Single-molecule DNA sliding assay on flow-stretched DNA (TIRF microscopy); parameters: species or system bacteriophage lambda; one-dimensional diffusion constant: unit not given here; details: for One-Dimensional Diffusion Constant (mean D1 ± SEM): lambda DNA, low salt 2-6 mM NaCl
Excerpt: To determine whether AVP-pVIc complexes slide on DNA, Applicants used single-molecule fluorescence microscopy (FIG. 10C) with flow-stretched DNA, (FIG. 10D,E) (Kabata, H. et al. Visualization of single molecules of RNA polymerase sliding along DNA. Science 262, 1561-3 (1993); Harada, Y. et al. Single-molecule imaging of RNA polymerase-DNA interactions in real time. Biophys. J. 76, 709-715 (1999) and Blainey, P. C., van Oijen, A. M., Banerjee, A., Verdine, G. L. & Xie, X. S. A base-excision DNA-repair protein finds intrahelical lesion bases by fast sliding in contact with DNA. Proc Natl Acad Sci USA 103, 5752-7 (2006)). […] Biochemistry 40, 13237-13245 (2001)), and furthermore to diffuse rapidly over tens of thousands of base pairs before dissociating from the DNA. For example, the molecule whose motion is shown in the raw image data in FIG. 12A traveled more than 20,000 base pairs during a 0.9 sec binding event. Despite the optical resolution limit imposed by diffraction, the centroid position of each signal in each frame was determined with 11 nm spatial precision at 3.5 ms time resolution (Gelles, J., Schnapp, B. J. & Sheetz, M. P. Tracking kinesin-driven movements with nanometer-scale precision. Nature 331, 450-3 (1988) and Thompson, R. E., Larson, D. R. & Webb, W. W. Precise nanometer localization analysis for individual fluorescent probes. Biophys J 82, 2775-83 (2002)), FIG. 12B.
Flow cells containing bacteriophage lambda DNA immobilized at one end were constructed as described previously (Blainey, P. C., van Oijen, A. M., Banerjee, A., Verdine, G. L. & Xie, X. S. A base-excision DNA-repair protein finds intrahelical lesion bases by fast sliding in contact with DNA. Proc Natl Acad Sci USA 103, 5752-7 (2006)). Labeled samples of AVP-pVIc complexes were infused at concentrations of 1-2 nM at rates of 20-50 mL/hour. Flow rates were chosen to drive the longitudinal DNA fluctuation faster than the imaging frame rate (Blainey, P. C., van Oijen, A. M., Banerjee, A., Verdine, G. L. & Xie, X. S. A base-excision DNA-repair protein finds intrahelical lesion bases by fast sliding in contact with DNA. Proc Natl Acad Sci USA 103, 5752-7 (2006)). The assay buffers consisted of 10 mM MES (pH 6.5), 2-25 mM NaCl, 50 μM EDTA, 20 mM ethanol, 5 percent glycerol, and, where indicated in the text, reducing agent (DTT and mercaptoethanol gave equivalent results). “Low salt” measurements were conducted with 2-6 mM NaCl; “high salt” measurements were conducted with 20-25 mM NaCl.
Due to the speed and duration of sliding by AVP-pVIc complexes, these events were readily identifiable manually. All AVP-pVIc complex DNA-binding events noted were included in the analyses. Once events had been identified, signals were tracked using Gaussian centroid determination in the Matlab environment. Molecular trajectories were analyzed in Matlab by methods similar to those previously published (Blainey, P. C., van Oijen, A. M., Banerjee, A., Verdine, G. L. & Xie, X. S. A base-excision DNA-repair protein finds intrahelical lesion bases by fast sliding in contact with DNA. Proc Natl Acad Sci USA 103, 5752-7 (2006)).
A question is does pVIc by itself slide on DNA. To address this possibility, Applicants performed a sliding assay (Blainey et al., 2012, Activated Adenovirus Proteinase Slides Along Viral DNA Via One-Dimensional Diffusion to Locate and Process its Substrate and Blainey et al., 2009, Nonspecifically bound proteins spin while diffusing along DNA. Nat Struct Mol Biol 16, 1224-1229 and Blainey et al., 2006, A base-excision DNA-repair protein finds intrahelical lesion bases by fast sliding in contact with DNA. Proc Natl Acad Sci USA 103, 5752-5757) using pVIc labeled with Cy3B at Cys10′. […] The sliding assay, based upon total internal reflection fluorescence microscopy, used phage λ DNA molecules (48,502 base pairs) attached at one end to a glass cover slip surface by a biotin-streptavidin linkage. The area of the cover slip with DNA was placed within a flow cell. […]

AVP [2] = molecular target: T1, AVP (Human adenovirus C serotype 2, UniProt P03252); details: cited from earlier work
[3] = tested on: virion precursor proteins in heat-disrupted Ad2 ts-1 virions; assay: Processing of virion precursor proteins in heat-disrupted ts-1 virus; format: biochemical
dsDNA [4] = details: 12-mer dsDNA, pH 7; McGrath et al. 2001; read-out: KD(app.); cited from earlier work
[5] = Detergent requirement for solubility, dynamic light scattering; format: physicochemical
Excerpt: Briefly, the gene for pVI and an expressible gene of VI were synthesized by PCR and inserted into expression vectors. The vectors for pVI and VI were used to transform Escherichia coli BL21 (DE3) Codon Plus cells. Recombinant proteins were expressed in autoinduction media (Studier, F. W. (2005) Protein Expr. Purif. 41, 207-234). Purification of pVI and VI was accomplished by cation-exchange and size exclusion chromatography. The proteins were about 99% pure. pVI and VI required a detergent to keep them in solution. Below a concentration of DDM of 0.0125%, the proteins were insoluble, as determined by dynamic light scattering.

AVP [6] = molecular target: T1, AVP
Protocol: Assays contained 3.38 μM pVI, 6.54 μM AVP and either 3.38 μM 36 bp dsDNA or no DNA. After the indicated time intervals, aliquots were removed and assayed for enzymatic activity. 100% activity is the enzyme activity of 3.38 μM AVP-pVIc complexes bound to DNA. (∘) plus DNA, (∇) minus DNA. […] After 30 min. at 21° C., the amount of AVP-pVIc formed was assayed. (C) SDS-PAGE (15% polyacrylamide gel) analysis of the reactions in (B) except that the concentrations of pVI, AVP and DNA were 26-fold higher. The DNA concentration in the reactions fractionated on the gel increased from left to right. In B and C, parentheses including the same number indicates the ratio of protein to DNA in B and C is the same.
Another question is if DNA is required for the activation of AVP by pVI. Applicants repeated the experiment but in the presence of dsDNA.
To see if both enzyme (AVP) and substrate (pVI) must be on the same molecule of DNA for activation to occur or whether they can interact when bound to different DNA molecules, Applicants incubated increasing concentrations of DNA with a mixture of AVP and pVI, each at a concentration such that both should bind to DNA at any DNA concentration. And then Applicants assayed for enzyme activation (FIG. 6B).

Ad2 hexon [7] = molecular target: T2, Ad2 hexon (human adenovirus serotype 2 (Ad2), UniProt P03277 2-968); assay: summary sentence of Example 1; fluorescence titration of Cy3B-pVI with hexon
T2 construct: also called hexon trimer; major capsid protein hexon

Ad2 hexon [8] = molecular target: T2, Ad2 hexon; assay: fluorescence anisotropy under tight binding conditions; 20 nM Cy3B-pVI titrated with hexon
Ad2 hexon [9] = molecular target: T2, Ad2 hexon; assay: fluorescence quenching; 1 nM Cy3B-pVI titrated with hexon (monomer concentrations), 20 mM Hepes pH 7, 150 mM NaCl

T2 sequence (P03277 2-968 limits assumed): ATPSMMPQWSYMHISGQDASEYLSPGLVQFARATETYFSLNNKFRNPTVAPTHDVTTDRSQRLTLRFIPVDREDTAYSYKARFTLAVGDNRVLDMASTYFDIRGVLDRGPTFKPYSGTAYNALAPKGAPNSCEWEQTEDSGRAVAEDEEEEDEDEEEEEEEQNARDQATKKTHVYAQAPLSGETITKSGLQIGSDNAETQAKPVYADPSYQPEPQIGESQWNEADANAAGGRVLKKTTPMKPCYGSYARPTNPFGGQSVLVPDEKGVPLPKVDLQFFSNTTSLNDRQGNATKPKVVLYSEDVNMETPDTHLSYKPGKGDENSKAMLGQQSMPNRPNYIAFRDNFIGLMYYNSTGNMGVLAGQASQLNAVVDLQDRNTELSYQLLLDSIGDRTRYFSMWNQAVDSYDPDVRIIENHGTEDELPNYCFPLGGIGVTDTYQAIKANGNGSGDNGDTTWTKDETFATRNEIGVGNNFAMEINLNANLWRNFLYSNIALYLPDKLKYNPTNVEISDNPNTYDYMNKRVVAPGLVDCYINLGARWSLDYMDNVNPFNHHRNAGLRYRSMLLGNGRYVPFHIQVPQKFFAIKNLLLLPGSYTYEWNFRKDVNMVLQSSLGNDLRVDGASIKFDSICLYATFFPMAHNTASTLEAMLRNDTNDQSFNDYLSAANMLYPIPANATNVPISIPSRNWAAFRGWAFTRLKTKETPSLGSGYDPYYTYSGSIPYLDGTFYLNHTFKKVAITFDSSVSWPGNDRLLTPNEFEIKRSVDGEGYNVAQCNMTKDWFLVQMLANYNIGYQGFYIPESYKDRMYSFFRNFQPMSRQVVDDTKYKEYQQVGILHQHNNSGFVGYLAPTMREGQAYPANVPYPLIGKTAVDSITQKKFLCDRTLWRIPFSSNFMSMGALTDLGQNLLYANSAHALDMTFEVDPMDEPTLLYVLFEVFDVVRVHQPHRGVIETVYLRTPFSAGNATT
T1 sequence (P03252 whole entry): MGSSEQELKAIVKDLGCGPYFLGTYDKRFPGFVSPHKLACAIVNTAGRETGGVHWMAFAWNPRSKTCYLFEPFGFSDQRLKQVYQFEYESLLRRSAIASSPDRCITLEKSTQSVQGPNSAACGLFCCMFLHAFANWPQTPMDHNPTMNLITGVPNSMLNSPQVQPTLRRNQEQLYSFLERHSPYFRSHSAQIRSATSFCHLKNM

In the case of “SFRRCGLRQVK [Random peptide, reference compound]”, the Kd (dsDNA [1]; 12-mer dsDNA, pH 8, peptide labeled at Cys5′ with Cy3B, read-out: Kd(app.)) is reported as 0.646 ± 0.075 µM, the “sliding along DNA (in words)” value (lambda DNA) is reported as “No Diffusion” and the “sliding along DNA (in words)” value (lambda DNA; listed as SFRRCGLRQVK) is reported as “No one-dimensional diffusion of the peptide was observed; also recorded: does not slide along the DNA”. For the same molecule, the “cofactor activity in stimulating AVP” value (AVP [2]; up to a concentration of 60 M, Brown and Mangel 2004) was “did not act like a cofactor in stimulating AVP”.

For “SGPSIVHRKCF [11-Actin-C, last 11 amino acids of β-actin]”, the “One-Dimensional Diffusion Constant (mean D1 ± SEM)” value (lambda DNA) was 6.40 (bp)^2/s × 10^−6.

For “SIVHRKCF [8-Actin-C, 8-amino acid peptide from the C-terminus of β-actin]”, the Kd (dsDNA [1]; 12-mer dsDNA, pH 7, Cy3B label on peptide, read-out: Kd(app.)) was 0.005 ± 0.00078 µM and the “One-Dimensional Diffusion Constant (mean D1 ± SEM)” value (lambda DNA) was 5.45 (bp)^2/s × 10^−6.

In the case of “AVP: adenovirus proteinase, a 23 kDa cysteine proteinase”, the “sliding along DNA (in words)” value (lambda DNA) is reported as “does not slide effectively along DNA”, the “processing of precursor proteins after DNase treatment” value ([3]; heat disrupted ts-1 virus incubated with DNase, 2 or 24 hours) is reported as “no processing of pVI or the other precursor proteins was observed” and the “time within which all pVI was processed” value ([3]; heat disrupted ts-1 virus, DNA present) is reported as ≤ 24 hours. The Kd (dsDNA [4]) was 0.063 µM and 0.0631 µM, the “increase of relative kcat/Km of AVP” value (AVP [2]; in the presence of DNA) was 110 fold and the “increase of relative kcat/Km of AVP” value (AVP [2]; in the presence of pVIc) was 1130 fold.

B1: precursor to adenovirus protein VI, pVI (other)
chain: MEDINFASLAPRHGSRPFMGNWQDIGTSNMSGGAFSWGSLWSGIKNFGSTIKNYGSKAWNSSTGQMLRDKLKEQNFQQKVVDGLASGISGVVDLANQAVQNKINSKLDPRPPVEEPPPAVETVSPEGRGEKRPRPDREETLVTQIDEPPSYEEALKQGLPTTRPIAPMATGVLGQHTPVTLDLPPPADTQQKPVLPGPSAVVVTRPSRASLRRAASGPRSMRPVASGNWQSTLNSIVGLGVQSLKRRRCF
notes: range 1-250; also called Cy3B-pVI; adenovirus precursor protein pVI
For B1, the Kd (dsDNA [1]; 12-mer dsDNA, 0.02 M NaCl, read-out: KD) was 0.055 µM, the Kd (dsDNA [1]; 12-mer dsDNA, 0.03 M NaCl, read-out: KD) was 0.155 µM and the Kd (dsDNA [1]; 12-mer dsDNA, 0.04 M NaCl, read-out: KD) was 0.328 µM. It also gave a Kd (dsDNA [1]; 12-mer dsDNA, 0.05 M NaCl, read-out: KD) of 0.449 µM, a Kd (dsDNA [1]; 12-mer dsDNA, 0.06 M NaCl, read-out: KD) of 1.04 µM and a Kd (dsDNA [1]; 33-mer dsDNA, 1 mM MgCl2, buffer B pH 8, 21° C., read-out: KD(app.)) of 0.035 µM. For the same molecule, the one-dimensional diffusion constant (lambda DNA) was 1.45×10^6, the “one-dimensional diffusion constant (mean)” value (lambda DNA; flow-stretched lambda DNA, low salt) was 1.45±0.13×10^6 (bp)^2/s and 1.45×10^6 (bp)^2/s and the “minimum DDM concentration required to remain in solution” value [5] was 0.0125%. The “rate of AVP activation relative to rate at peak DNA concentration (50 nM)” value (AVP [6]; 77 nM pVI, 130 nM AVP, 320 nM 36-mer dsDNA) was 12%, the “pVI cleaved and used to form active AVP-pVIc complexes” value (AVP [6]; 3.38 μM pVI, 6.54 μM AVP, 3.38 μM 36 bp dsDNA, by one hour) was 100% and the “enzymatic activity after mixing AVP with pVI” value (AVP [6]; no DNA) was “no enzymatic activity was detected”. The “time by which all pVI had disappeared (SDS-PAGE)” value (AVP [6]; with AVP and 36 bp dsDNA) was ≤ 10 minutes, the Kd (Ad2 hexon [7]) was 0.0019 µM and 0.00185 µM and the “stoichiometry of binding of pVI to hexon monomer” value (Ad2 hexon [8]) was 1 pVI per hexon monomer. For the same molecule, the Kd (Ad2 hexon [9]) was 0.0018 µM.
